In patent US11441131B2, “Heparosan synthases and use thereof for saccharide synthesis” (The Regents of the University of California, priority 2019, dated 2022):

Columns and labels:
[1] = Isoelectric point (pI); assay type: physicochemical
[2] = Coupled-enzyme reverse glycosylation assay with NmLgtA and LacβMU; assay type: biochemical; conditions: His6-Δ80PmHS2 +, UDP-GlcNAc −
Description: Coupled-enzyme reverse glycosylation assay. […] Reactions were stopped by heating reaction mixtures at 70° C. for 10 min followed by incubation on ice for 30 min and centrifuged at 11,337 g for 15 min.

[3] = Relative activity comparison with acceptor GlcNAcαProNHFmoc and UDP-GlcA; assay type: biochemical; conditions: enzyme 1.5 mg/mL; percentage conversion, 30 min, HPLC
Description: (§1) Reactions were stopped by heating reaction mixtures at 70° C. for 10 min, followed by incubation on ice for 30 min and centrifugation at 11,337 g for 15 min.

[4] = Thermostability assay; assay type: physicochemical; conditions: 30 min incubation at 25-50 °C
Description: Thermostability assays. […] UHPLC detection was carried out similarly as described above for kinetics studies.

[5] = Relative activity comparison with acceptor GlcAβProNHFmoc (O1) and UDP-GlcNAc; assay type: biochemical; conditions: for GlcNAcα1-4GlcAβProNHFmoc (%): percentage conversion, 30 min, HPLC
Description: as §1

[6] = Protein expression and purification; design: species or system E. coli BL21 (DE3); conditions: per L culture
Description: Protein expression and purification. The plasmid-bearing E. coli BL21(DE3) cells were cultured in 1 L of LB-rich media (10 g/L tryptone, 5 g/L yeast extract and 10 g/L NaCl) supplemented with ampicillin (100 μg/mL). Expression of the target protein was achieved by inducing the E. coli culture with 0.1 mM of isopropyl-1-thio-β-D-galactopyranoside (IPTG) when OD600 nm reached 0.8-1.0, followed by incubating at 20° C. for 20 h with shaking at 250 rpm in a C25KC incubator shaker (New Brunswick Scientific, Edison, N.J.). Histidine-tagged target proteins were purified from cell lysate. To obtain the cell lysate, cell pellet harvested by centrifugation at 2,795 g for 50 min was resuspended (25 mL/L cell culture) in lysis buffer (Tris-HCl, 100 mM, pH 8.0 with 0.1% Triton X-100). Sonication protocol was 2 s (sonication)/3 s (rest) for a total of 6 min on ice. Lysed cells were centrifuged at 5,000 g for 50 min and the supernatant (lysate) was collected. Purification of histidine-tagged proteins from the lysate was achieved using a Ni′-resin column. The column was pre-equilibrated with 10 column volumes of binding buffer (5 mM imidazole, 0.5 M NaCl, 50 mM Tris-HCl, pH 7.5). The lysate was then loaded, and the column was washed with 10 column volumes of binding buffer and 10 column volumes of washing buffer (16 mM imidazole, 0.5 M NaCl, 50 mM Tris-HCl, pH 7.5). The target protein was eluted with Tris-HCl buffer (50 mM, pH 7.5) containing imidazole (200 mM) and NaCl (0.5 M). The fractions containing the purified enzymes were collected, and stored at 4° C.

[7] = Behaviour during dialysis; assay type: physicochemical
[8] = Effect of UDP concentration on reverse glycosylation activity; assay type: biochemical; conditions: O6 1 mM, enzyme 15 μM
Description: Reactions were stopped by heating reaction mixtures at 70° C. for 10 min followed by incubation on ice for 30 min, and centrifugation at 11,337 g for 15 min. Supernatants were analyzed using an Infinity 1290 II HPLC equipped with 1260 Infinity II Diode Array Detector WR (monitored at 254 nm, Agilent Technologies, CA). An AdvanceBio Glycan Mapping column (1.8 μm particle, 2.1×150 mm, Agilent Technologies, CA) was used with a gradient (13 min) of 0.5 mL/min for 90% to 70% acetonitrile and a solution of water with 0.1% TFA for analysis.

[9] = Survival of lyophilization assay; assay type: physicochemical; conditions: dialysis, rehydration, compared with freshly prepared enzyme
Description: Survival of lyophilization assays. […] The resulting powders were stored at −80° C. for 3 days. For activity assays, the dried powder was dissolved in water. […] Chromatographic separation and detection were achieved similarly as described above for the kinetics studies except that an isocratic flow (0.3 mL/min) of a mixed solvent (32% acetonitrile/68% water with 0.1% TFA) was used for elution.

B1: His6-Δ80PmHS2: N-terminal His6-tagged and N-terminal 80 amino acid-truncated PmHS2 (SEQ ID NO:3) (protein)
chain: MGSSHHHHHHSFEKIYTYNQALEAKLEKDKQTTSITDLYNEVAKSDLGLVKETNSANPLVSIIMTSHNTAQFIEASINSLLLQTYKNIEIIIVDDDSSDNTFEIASRIANTTSKVRVFRLNSNLGTYFAKNTGILKSKGDIIFFQDSDDVCHHERIERCVNILLANKETIAVRCAYSRLAPETQHIIKVNNMDYRLGFITLGMHRKVFQEIGFFNCTTKGSDDEFFHRIAKYYGKEKIKNLLLPLYYNTMRENSLFTDMVEWIDNHNIIQKMSDTRQHYATLFQAMHNETASHDFKNLFQFPRIYDALPVPQEMSKLSNPKIPVYINICSIPSRIAQLQRIIGILKNQCDHFHIYLDGYVEIPDFIKNLGNKATVVHCKDKDNSIRDNGKFILLEELIEKNQDGYYITCDDDIIYPSDYINTMIKKLNEYDDKAVIGLHGILFPSRMTKYFSADRLVYSFYKPLEKDKAVNVLGTGTVSFRVSLFNQFSLSDFTHSGMADIYFSLLCKKNNILQICISRPANWLTEDNRDSETLYHQYRDNDEQQTQLIMENGPWGYSSIYPLVKNHPKFTDLIPCLPFYFL
modifications: N-terminal His6 tag
pI [1]: 6.61
GlcNAcβ1-3LacβMU (%) ([2]; Reaction 1: NmLgtA +, UDP +): 9.7 ± 0.6%
LacβMU (%) ([2]; Reaction 1: NmLgtA +, UDP +): 90.3 ± 0.6%
O2 (%) ([2]; Reaction 1: NmLgtA +, UDP +): 9.3%
O3 (%) ([2]; Reaction 1: NmLgtA +, UDP +): 1.0%
O4 (%) ([2]; Reaction 1: NmLgtA +, UDP +): 16.2%
O5 (%) ([2]; Reaction 1: NmLgtA +, UDP +): 4.4%
O6 (%) ([2]; Reaction 1: NmLgtA +, UDP +): 36.2%
O7 (%) ([2]; Reaction 1: NmLgtA +, UDP +): 3.0%
O8 (%) ([2]; Reaction 1: NmLgtA +, UDP +): 20.4%
O9 (%) ([2]; Reaction 1: NmLgtA +, UDP +): 0.6%
O10 (%) ([2]; Reaction 1: NmLgtA +, UDP +): 7.3%
O12 (%) ([2]; Reaction 1: NmLgtA +, UDP +): 1.7%
LacβMU (%) ([2]; Reaction 2: NmLgtA −, UDP +): 100%
O2 (%) ([2]; Reaction 2: NmLgtA −, UDP +): 11.4%
O3 (%) ([2]; Reaction 2: NmLgtA −, UDP +): 0.7%
O4 (%) ([2]; Reaction 2: NmLgtA −, UDP +): 23.7%
O5 (%) ([2]; Reaction 2: NmLgtA −, UDP +): 5.1%
O6 (%) ([2]; Reaction 2: NmLgtA −, UDP +): 35.1%
O7 (%) ([2]; Reaction 2: NmLgtA −, UDP +): 1.2%
O8 (%) ([2]; Reaction 2: NmLgtA −, UDP +): 15.8%
O9 (%) ([2]; Reaction 2: NmLgtA −, UDP +): 0.5%
O10 (%) ([2]; Reaction 2: NmLgtA −, UDP +): 5.1%
O12 (%) ([2]; Reaction 2: NmLgtA −, UDP +): 1.2%
LacβMU (%) ([2]; Reaction 4: NmLgtA +, UDP −): 100%
O6 (%) ([2]; Reaction 4: NmLgtA +, UDP −): 100%
GlcAβ1-4GlcNAcαProNHFmoc (%) [3]: 9.8 ± 0.4%
increase of Tso (temperature at which the enzyme retains 50% of maximum activity) compared to WT [4]: approximately 7 °C
efficiency of GlcAβProNHFmoc (O1) over GlcNAcαProNHFmoc as substrate in disaccharide production [5]: 130 fold
GlcNAcα1-4GlcAβProNHFmoc (%) ([5]; enzyme 0.06 mg/mL): 50.8 ± 6.0%
GlcNAcα1-4GlcAβProNHFmoc (%) ([5]; enzyme 1.5 mg/mL): 100%
expression level [6]: 60 to 80 mg/L
behaviour during dialysis [7]: remained soluble
O6 (%) ([8]; UDP 0 (nM)): 100%
O4 (%) ([8]; UDP 1 (nM)): 6.7%
O5 (%) ([8]; UDP 1 (nM)): 2.6%
O6 (%) ([8]; UDP 1 (nM)): 81.6%
O8 (%) ([8]; UDP 1 (nM)): 7.9%
O10 (%) ([8]; UDP 1 (nM)): 0.8%
O1 (%) ([8]; UDP 5 (nM)): 3.4%
O2 (%) ([8]; UDP 5 (nM)): 1.5%
O3 (%) ([8]; UDP 5 (nM)): 0.6%
O4 (%) ([8]; UDP 5 (nM)): 16.9%
O5 (%) ([8]; UDP 5 (nM)): 4.2%
O6 (%) ([8]; UDP 5 (nM)): 58.0%
O7 (%) ([8]; UDP 5 (nM)): 0.4%
O8 (%) ([8]; UDP 5 (nM)): 12.8%
O10 (%) ([8]; UDP 5 (nM)): 1.9%
O12 (%) ([8]; UDP 5 (nM)): 0.2%
O1 (%) ([8]; UDP 10 (nM)): 3.4%
O2 (%) ([8]; UDP 10 (nM)): 7.8%
O3 (%) ([8]; UDP 10 (nM)): 1.5%
O4 (%) ([8]; UDP 10 (nM)): 18.9%
O5 (%) ([8]; UDP 10 (nM)): 3.8%
O6 (%) ([8]; UDP 10 (nM)): 38.0%
O7 (%) ([8]; UDP 10 (nM)): 1.8%
O8 (%) ([8]; UDP 10 (nM)): 18.6%
O9 (%) ([8]; UDP 10 (nM)): 0.7%
O10 (%) ([8]; UDP 10 (nM)): 4.2%
O12 (%) ([8]; UDP 10 (nM)): 1.1%
activity after lyophilization [9]: without loss of activity
